These results are taken from PMC4116151 (Biochemistry, 2014).

For data set [1], the target named is T1, YbdB (Escherichia coli, UniProt P0A8Y8).
T1 sequence (P0A8Y8 1-137): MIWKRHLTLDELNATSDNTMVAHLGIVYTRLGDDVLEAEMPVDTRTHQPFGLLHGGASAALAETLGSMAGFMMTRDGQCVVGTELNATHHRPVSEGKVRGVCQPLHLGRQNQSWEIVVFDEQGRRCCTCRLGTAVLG
The data set is described as follows: steady-state inhibition of 4-hydroxybenzoyl-CoA hydrolysis, direct […] nm assay. Type of data set: biochemical.

The target in data set [2] is T2, YdiI (Escherichia coli, UniProt P77781).
T2 sequence (P77781 1-136): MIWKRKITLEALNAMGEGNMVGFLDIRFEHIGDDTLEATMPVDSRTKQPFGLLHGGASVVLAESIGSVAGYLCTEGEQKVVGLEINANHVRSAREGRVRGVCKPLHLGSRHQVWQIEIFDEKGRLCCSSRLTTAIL
The data set is described as above. Type of data set: biochemical.

Data set [3] deals with T1, YbdB. Put plainly: steady-state inhibition of thioester hydrolysis, DTNB coupled assay. Type of data set: biochemical.
For data set [4], the target named is T2, YdiI. The description is as above. Type of data set: biochemical.
Data set [5] addresses T2, YdiI. Put plainly: steady-state kinetics, DTNB coupled assay at […] nm. In kind it is biochemical. The note with it: pH 7.5, 25 °C; 50 mM K+HEPES, 1 mM DTNB.
For data set [6], the target named is T3, YbdB (Escherichia coli, UniProt P0A8Y8, M68V).
T3 sequence (P0A8Y8 1-137 M68V): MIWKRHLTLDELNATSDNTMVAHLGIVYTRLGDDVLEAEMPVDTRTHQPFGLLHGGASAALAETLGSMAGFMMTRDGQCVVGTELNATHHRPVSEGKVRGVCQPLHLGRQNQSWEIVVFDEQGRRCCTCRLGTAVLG
Put plainly: steady-state kinetics, DTNB coupled assay at […] nm. Type of data set: biochemical. The following applies: pH 7.5, 25 °C; 50 mM K+HEPES, 1 mM DTNB.

Substrate in the data set “purified protein”: CC(C)(COP(=O)(O)OP(=O)(O)OC[C@H]1O[C@@H](n2cnc3c(N)ncnc32)[C@H](O)[C@@H]1OP(=O)(O)O)[C@@H](O)C(=O)NCCC(=O)NCCSC(=O)c1ccccc1
The data set is described as follows: purified protein. The note with it: pH 7.5, 25 °C, 50 mM K+HEPES, 1 mM DTNB.

On to `CC(C)(COP(=O)(O)OP(=O)(O)OC[C@H]1O[C@@H](n2cnc3c(N)ncnc32)[C@H](O)[C@@H]1OP(=O)(O)O)[C@@H](O)C(=O)NCCC(=O)NCCS` [compound 4, CoA], for which the Ki on YbdB [1] stood at 210 ± 10 µM; on YdiI [2] it was 16 ± 1 µM.

In the case of `CC(C)(COP(=O)(O)OP(=O)(O)OC[C@H]1O[C@@H](n2cnc3c(N)ncnc32)[C@H](O)[C@@H]1OP(=O)(O)O)[C@@H](O)C(=O)NCCC(=O)NCCSCC(=O)c1ccc(O)cc1O` [compound 5, 2,4-DHP-CoA], the Ki at YbdB [3] came to 5.9 ± 6 µM; at YdiI [4], 2.5 ± 0.2 µM.

For `CC(C)(COP(=O)(O)OP(=O)(O)OC[C@H]1O[C@@H](n2cnc3c(N)ncnc32)[C@H](O)[C@@H]1OP(=O)(O)O)[C@@H](O)C(=O)NCCC(=O)NCCSC(=O)c1ccccc1` [compound 3, benzoyl-CoA], the Km amounted to 25 ± 3 µM on YdiI [5] and 24 ± 2 µM at YbdB [6].

Consider `CC(C)(COP(=O)(O)OP(=O)(O)OC[C@H]1O[C@@H](n2cnc3c(N)ncnc32)[C@H](O)[C@@H]1OP(=O)(O)O)[C@@H](O)C(=O)NCCC(=O)NCCSCC(=O)c1ccccc1` [phenacyl-CoA], for which the Ki at YbdB [3] amounted to 65 ± 6 µM; on YdiI [4], 7.8 ± 0.4 µM.

Molecule `CCCCCCCCCC(=O)CSCCNC(=O)CCNC(=O)[C@H](O)C(C)(C)COP(=O)(O)OP(=O)(O)OC[C@H]1O[C@@H](n2cnc3c(N)ncnc32)[C@H](O)[C@@H]1OP(=O)(O)O` [compound 6, UDO-CoA] had a Ki at YdiI [4] of 12.2 ± 0.5 µM.

B1: YbdB (Escherichia coli K-12) (protein)
chain: MIWKRHLTLDELNATSDNTMVAHLGIVYTRLGDDVLEAEMPVDTRTHQPFGLLHGGASAALAETLGSMAGFMMTRDGQCVVGTELNATHHRPVSEGKVRGVCQPLHLGRQNQSWEIVVFDEQGRRCCTCRLGTAVLG
With B1, the Km in “purified protein” was 12 ± 1 µM.

B2: YdiI (Escherichia coli K-12; S64A) (protein)
chain: MIWKRKITLEALNAMGEGNMVGFLDIRFEHIGDDTLEATMPVDSRTKQPFGLLHGGASVVLAEAIGSVAGYLCTEGEQKVVGLEINANHVRSAREGRVRGVCKPLHLGSRHQVWQIEIFDEKGRLCCSSRLTTAIL
As for B2, in the data set “purified protein”, the Km amounted to 11.9 ± 0.9 µM.

B3: YdiI (Escherichia coli K-12; Q48N) (protein)
chain: MIWKRKITLEALNAMGEGNMVGFLDIRFEHIGDDTLEATMPVDSRTKNPFGLLHGGASVVLAESIGSVAGYLCTEGEQKVVGLEINANHVRSAREGRVRGVCKPLHLGSRHQVWQIEIFDEKGRLCCSSRLTTAIL
B3: the Km in the data set “purified protein” is 12.6 ± 0.8 µM.

B4: YdiI (Escherichia coli K-12; R91A) (protein)
chain: MIWKRKITLEALNAMGEGNMVGFLDIRFEHIGDDTLEATMPVDSRTKQPFGLLHGGASVVLAESIGSVAGYLCTEGEQKVVGLEINANHVASAREGRVRGVCKPLHLGSRHQVWQIEIFDEKGRLCCSSRLTTAIL
B4: the Michaelis constant (Km) in “purified protein” is 23 ± 3 µM.

B5: YdiI (Escherichia coli K-12; H54F) (protein)
chain: MIWKRKITLEALNAMGEGNMVGFLDIRFEHIGDDTLEATMPVDSRTKQPFGLLFGGASVVLAESIGSVAGYLCTEGEQKVVGLEINANHVRSAREGRVRGVCKPLHLGSRHQVWQIEIFDEKGRLCCSSRLTTAIL
With B5, in “purified protein”, the Km stood at 16.8 ± 0.9 µM.

B6: YdiI (Escherichia coli K-12; H54A) (protein)
chain: MIWKRKITLEALNAMGEGNMVGFLDIRFEHIGDDTLEATMPVDSRTKQPFGLLAGGASVVLAESIGSVAGYLCTEGEQKVVGLEINANHVRSAREGRVRGVCKPLHLGSRHQVWQIEIFDEKGRLCCSSRLTTAIL
As for B6, the Km in the data set “purified protein” amounted to 100 ± 8 µM.

B7: YdiI (Escherichia coli K-12; H89A) (protein)
chain: MIWKRKITLEALNAMGEGNMVGFLDIRFEHIGDDTLEATMPVDSRTKQPFGLLHGGASVVLAESIGSVAGYLCTEGEQKVVGLEINANAVRSAREGRVRGVCKPLHLGSRHQVWQIEIFDEKGRLCCSSRLTTAIL
Take B7: the Km in the data set “purified protein” was 180 ± 10 µM.

B8: YdiI (Escherichia coli K-12; S109A) (protein)
chain: MIWKRKITLEALNAMGEGNMVGFLDIRFEHIGDDTLEATMPVDSRTKQPFGLLHGGASVVLAESIGSVAGYLCTEGEQKVVGLEINANHVRSAREGRVRGVCKPLHLGARHQVWQIEIFDEKGRLCCSSRLTTAIL
Turning to B8, in the data set “purified protein”, the Km amounted to 14.2 ± 0.2 µM.

B9: YdiI (Escherichia coli K-12; S67A) (protein)
chain: MIWKRKITLEALNAMGEGNMVGFLDIRFEHIGDDTLEATMPVDSRTKQPFGLLHGGASVVLAESIGAVAGYLCTEGEQKVVGLEINANHVRSAREGRVRGVCKPLHLGSRHQVWQIEIFDEKGRLCCSSRLTTAIL
With B9, in the data set “purified protein”, the Km amounted to 12.6 ± 0.2 µM.

B10: YdiI (Escherichia coli K-12; E63D) (protein)
chain: MIWKRKITLEALNAMGEGNMVGFLDIRFEHIGDDTLEATMPVDSRTKQPFGLLHGGASVVLADSIGSVAGYLCTEGEQKVVGLEINANHVRSAREGRVRGVCKPLHLGSRHQVWQIEIFDEKGRLCCSSRLTTAIL
With B10, in the data set “purified protein”, the Km was 120 ± 10 µM.
